From publication PMC3861479, “LipL41, a Hemin Binding Protein from Leptospira santarosai serovar Shermani” (PLoS ONE, 2013)

B1: LipL41 C140A/C220A (natural protein)
chain: AATVDVEYPVFPKDKEGRALQKFLGTIRNVGLAVEPPKKSLWEAIFGEGSSFIDQMPSKVFEAFDKESYYKLTDLSKRADILNEATLSLTGITKSRAKIGNLIGAEAILYIGYQKPYTEASTENKIDAVAAGIKVAGFVASAATGKDVNTGNDPVSKPTGVRMMLIPLDATLIKVETGEVKKAVVSSPAKIFNSVGNLEAPSILDSFGQGLDEAAAYIKGRLSPIVKTERIKVFVKDEDEEVKELLQEGYEEIVGETPSFKKAKEAWEKADKKAKGQSWGAKANLATYYFSIGDFEKSIKLYEEAMKLKDADKSYLRELRKRVEATFAVDESNAK
notes: also called cysteine double mutant; HRM-mutated LipL41; source: E. coli, expression and purification similar to that of the wildtype
B2: LipL41 C220A (natural protein)
chain: AATVDVEYPVFPKDKEGRALQKFLGTIRNVGLAVEPPKKSLWEAIFGEGSSFIDQMPSKVFEAFDKESYYKLTDLSKRADILNEATLSLTGITKSRAKIGNLIGAEAILYIGYQKPYTECSTENKIDAVAAGIKVAGFVASAATGKDVNTGNDPVSKPTGVRMMLIPLDATLIKVETGEVKKAVVSSPAKIFNSVGNLEAPSILDSFGQGLDEAAAYIKGRLSPIVKTERIKVFVKDEDEEVKELLQEGYEEIVGETPSFKKAKEAWEKADKKAKGQSWGAKANLATYYFSIGDFEKSIKLYEEAMKLKDADKSYLRELRKRVEATFAVDESNAK
notes: also called HRM-mutated LipL41; source: E. coli, expression and purification similar to that of the wildtype
B3: LipL41 C140A (natural protein)
chain: AATVDVEYPVFPKDKEGRALQKFLGTIRNVGLAVEPPKKSLWEAIFGEGSSFIDQMPSKVFEAFDKESYYKLTDLSKRADILNEATLSLTGITKSRAKIGNLIGAEAILYIGYQKPYTEASTENKIDAVAAGIKVAGFVASAATGKDVNTGNDPVSKPTGVRMMLIPLDATLIKVETGEVKKAVVSSPAKIFNSVGNLECPSILDSFGQGLDEAAAYIKGRLSPIVKTERIKVFVKDEDEEVKELLQEGYEEIVGETPSFKKAKEAWEKADKKAKGQSWGAKANLATYYFSIGDFEKSIKLYEEAMKLKDADKSYLRELRKRVEATFAVDESNAK
notes: as for B2
B4: recombinant LipL41 (Ala21 - Lys355) with an N-terminal His6-tag (natural protein)
chain: AATVDVEYPVFPKDKEGRALQKFLGTIRNVGLAVEPPKKSLWEAIFGEGSSFIDQMPSKVFEAFDKESYYKLTDLSKRADILNEATLSLTGITKSRAKIGNLIGAEAILYIGYQKPYTECSTENKIDAVAAGIKVAGFVASAATGKDVNTGNDPVSKPTGVRMMLIPLDATLIKVETGEVKKAVVSSPAKIFNSVGNLECPSILDSFGQGLDEAAAYIKGRLSPIVKTERIKVFVKDEDEEVKELLQEGYEEIVGETPSFKKAKEAWEKADKKAKGQSWGAKANLATYYFSIGDFEKSIKLYEEAMKLKDADKSYLRELRKRVEATFAVDESNAK
notes: also called LipL41 wildtype; pRSET-LipL41; source: E. coli BL21(DE3), purified (Ni-NTA); copies: 36
B5: LipL41-C100 with a TPR-containing fragment of residues 256-355 (domain or fragment)
chain: KDEDEEVKELLQEGYEEIVGETPSFKKAKEAWEKADKKAKGQSWGAKANLATYYFSIGDFEKSIKLYEEAMKLKDADKSYLRELRKRVEATFAVDESNAK
notes: source: E. coli, expression and purification similar to that of the wildtype

Assays:
[1] = target: the molecule itself; assay: negative-stain transmission electron microscopy; 0.1 mg/ml LipL41 on a glow-discharged copper grid, 2% uranyl acetate; class averages with EMAN2
[2] = target: the molecule itself; assay: SEC + AUC; LipL41-C100 in solution; data not shown

Protein | binding result [1] | further results
B1 | binds | –
B2 | binds | –
B3 | binds | –
B4 | – | stoichiometry N [1]: 36
B5 | – | stoichiometry N [2]: 2
